Where a chain is given by its changes, count along the chain named.
T1: Pep-3, NH2-…-OH (MW 1590 Da) (human)
T1 sequence (peptide): LEEKKGNYVVTDHG

B1: AB-EGFRvIII-XG1-095 (antibody, human IgG1, V domains shown)
VH: QVQLQESGPFLVKPSQTLSLTCTVSGGSISSGGYYWSWIRQHPGKGLEWIGFIYYRGNTYYNPSLKSRVTISVDTSKNQFSLKLSSVTAADTAVYYCARDGYCSRTGCYGGWFDPWGQGTLVTVSP
VL: DIVMTQTPLSSPVTLGQPASISCRSSQSLIHTDGNIYLSWLQQRPGQPPRLLIYKISNRFSGVPDRFSGSGAGTDFTLKISRVEAEDVGVYYCMQGTQFPITFGQGTRLEIK
B2: SC-EGFRvIII-XG1-139 (antibody, human IgG1, V domains shown)
VH: EVQVLESGGGLVQPGGSLRLSCAASGFTFSSYAMSWVRQAPGKGLEWVSAISGSGGSTNYADSVKGRFTISRDNSKNTLYLQMNSLRAEDTAVYYCAGSSGWSEYWGQGTLVTVSS
VL: DIQMTQSPSSLSASVGDRVTITCRASQGIRNNLAWYQQKPGKAPKRLIYAASNLQSGVPSRFTGSGSGTEFTLIVSSLQPEDFATYYCLQHHSYPLTSGGGTKVEIK
B3: SC-EGFRvIII-XG2-170 (antibody, human IgG1, V domains shown)
VH: QVQLQQSGPGLVKPSQTLSLTCAISGDSVSSNNAAWNWIRQSPARGLEWLGRTYYRSKWYNDYVVSVKSRITINPDTSKNQFSLQLNSVTPEDTAVYYCVRATAFDYWGQGTLVTVSS
VL: AIVLTQTPLSSPVTLGQPASISCRSSQSLVHRDGNTYLSWLQQRPGQPPRLLIYKISNRFSGVPDRFSGSGAGTDFTLKISRVEPDDVGVYYCMHTTQLPWTFGQGTKVEIK
B4: SC-EGFRvIII-XG2-150 (antibody, human IgG1, V domains shown)
VH: QVQLQQSGPGLVKPSQTLSLTCAISGDSVSSYSSAWNWIRQSPSRGLEWLGRAYHRSRWYYEYAVSVKSRINITPDTSKNQFSLQLNSVTPEDTAVYYCARGSRFDYWGQGTLVTVSS
VL: B3 VL with A1D, L4M, P85A, D86E, V90I, Y92F, L99F, K108R
B5: SC-EGFRvIII-XG1-123/124 (antibody, human IgG1, V domains shown)
VH: QVQLVESGGGVVQPGRSLRLSCAASGFTLSSYGMHWVRQAPGKGLEWVAVMSYDGSKEDYADSVKGRFTISRDNSENTLYLQMNSLRAEDTAVYYCVSEGYCSSRSCYKYYYYGMDVWGQGTTVTVSS
VL: DIVMTQSPLSLPVTPGEPASISCRSSQSLLYRNGNNYLDWYLQKPGQSPQLLIYLGSNRASGVPDRFSGSGSGTDFTLNISRVEAEDVGHYYCMQALQTPRTFGQGTKVEIK
B6: SC-EGFRvIII-XG1-333 (antibody, human IgG1, V domains shown)
VH: B5 VH with A23V, P41L, M51T, E58K, E76K, S103D, R105T
VL: B5 VL with K44R, N79K, H90V
B7: SC-EGFRvIII-XG1-342 (antibody, human IgG1, V domains shown)
VH: B5 VH with A23V, M51T, E58K, E76K, S103D, R105T
VL: B5 VL with K44R, N79K, H90V
B8: SC-EGFRvIII-XG1-211 (antibody, human IgG1, V domains shown)
VH: B5 VH with A23V, M51T, E58K, V64A, E76K, R105S
VL: B5 VL with K44R, N79K, H90V
B9: SC-EGFRvIII-XG1-318 (antibody, human IgG1, V domains shown)
VH: B5 VH with A23V, M51T, E58K, E76K, S103D, R105S
VL: B5 VL with K44R, N79K, H90V
B10: SC-EGFRvIII-XG1-250 (antibody, human IgG1, V domains shown)
VH: B2 VH with V2G, V4L, L11W, G16E, M83V, A88V
VL: DIQMTQSPSSLSASVGDSVTITCRTSQGIRKNLGWYQQKPGKAPKRLIYAASSLQSGVPSRFSGSGSGTEFTLTISRLQPEDFATYYCLQHHSYPLTFGGGTRVEIR

What follows are binders tested against T1, Pep-3, NH2-…-OH (MW 1590 Da) (human) (assay: SPR (Biacore 2000), mAb immobilised, pep-3 injected).

Row | Kd [nM] | koff [s⁻¹] | kon [M⁻¹ s⁻¹] | Binder
1 | 66 | 0.0099 | 149000 | B1
2 | 290 | 0.00298 | 10300 | B2

What follows are binders tested against EGFRvIII-rabbit Fc fusion protein (EGFRvIII-RbFc) (human; rabbit) (UniProt P00533) (assay: ELISA, transfection supernatant titrated on EGFRvIII-Rab Ig Fc coat).

Row | titre, antigen binding (抗原结合) (titre (1:x dilution)) | Binder
3 | > 64 | B3
4 | > 64 | B4
5 | > 64 | B5
6 | > 64 | B6
7 | > 64 | B7
8 | > 64 | B8
9 | 64 | B9
10 | > 64 | B10
11 | > 64 | B2

These binders were tested against T1, Pep-3, NH2-…-OH (MW 1590 Da) (human) (assay: SPR (Biacore 2000), mAb immobilised, pep-3 injected, 1:1 model).

Row | koff [s⁻¹] | kon [M⁻¹ s⁻¹] | Binder
12 | 0.00993 | 149000 | B1
13 | 0.00298 | 10300 | B2

Reference: CN1930187A
